The values below come from IntAct's records for PubMed 31515488.

The labels stand for the following.
B1: Peroxisomal bifunctional enzyme (Homo sapiens), Q08426 (parent)
chain: MAEYTRLHNALALIRLRNPPVNAISTTLLRDIKEGLQKAVIDHTIKAIVICGAEGKFSAGADIRGFSAPRTFGLTLGHVVDEIQRNEKPVVAAIQGMAFGGGLELALGCHYRIAHAEAQVGLPEVTLGLLPGARGTQLLPRLTGVPAALDLITSGRRILADEALKLGILDKVVNSDPVEEAIRFAQRVSDQPLESRRLCNKPIQSLPNMDSIFSEALLKMRRQHPGCLAQEACVRAVQAAVQYPYEVGIKKEEELFLYLLQSGQARALQYAFFAERKANKWSTPSGASWKTASARPVSSVGVVGLGTMGRGIVISFARARIPVIAVDSDKNQLATANKMITSVLEKEASKMQQSGHPWSGPKPRLTSSVKELGGVDLVIEAVFEEMSLKKQVFAELSAVCKPEAFLCTNTSALDVDEIASSTDRPHLVIGTHFFSPAHVMKLLEVIPSQYSSPTTIATVMNLSKKIKKIGVVVGNCFGFVGNRMLNPYYNQAYFLLEEGSKPEEVDQVLEEFGFKMGPFRVSDLAGLDVGWKSRKGQGLTGPTLLPGTPARKRGNRRYCPIPDVLCELGRFGQKTGKGWYQYDKPLGRIHKPDPWLSKFLSRYRKTHHIEPRTISQDEILERCLYSLINEAFRILGEGIAASPEHIDVVYLHGYGWPRHKGGPMFYASTVGLPTVLEKLQKYYRQNPDIPQLEPSDYLKKLASQGNPPLKEWQSLAGSPSSKL
partner: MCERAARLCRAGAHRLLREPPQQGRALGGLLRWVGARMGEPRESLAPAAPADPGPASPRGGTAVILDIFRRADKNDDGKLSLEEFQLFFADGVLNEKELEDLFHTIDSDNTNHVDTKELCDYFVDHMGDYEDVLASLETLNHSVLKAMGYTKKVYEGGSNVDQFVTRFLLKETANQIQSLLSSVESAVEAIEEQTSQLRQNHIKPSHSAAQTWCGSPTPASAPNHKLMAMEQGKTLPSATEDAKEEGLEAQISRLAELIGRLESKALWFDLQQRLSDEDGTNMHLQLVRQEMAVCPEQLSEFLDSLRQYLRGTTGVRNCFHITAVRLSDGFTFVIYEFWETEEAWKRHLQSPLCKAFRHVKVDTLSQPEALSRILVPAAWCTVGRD
B2: Scaffold protein ILK (Homo sapiens), Q13418 (parent)
chain: MDDIFTQCREGNAVAVRLWLDNTENDLNQGDDHGFSPLHWACREGRSAVVEMLIMRGARINVMNRGDDTPLHLAASHGHRDIVQKLLQYKADINAVNEHGNVPLHYACFWGQDQVAEDLVANGALVSICNKYGEMPVDKAKAPLRELLRERAEKMGQNLNRIPYKDTFWKGTTRTRPRNGTLNKHSGIDFKQLNFLTKLNENHSGELWKGRWQGNDIVVKVLKVRDWSTRKSRDFNEECPRLRIFSHPNVLPVLGACQSPPAPHPTLITHWMPYGSLYNVLHEGTNFVVDQSQAVKFALDMARGMAFLHTLEPLIPRHALNSRSVMIDEDMTARISMADVKFSFQCPGRMYAPAWVAPEALQKKPEDTNRRSADMWSFAVLLWELVTREVPFADLSNMEIGMKVALEGLRPTIPPGISPHVCKLMKICMNEDPAKRPKFDMIVPILEKMQDK
partner: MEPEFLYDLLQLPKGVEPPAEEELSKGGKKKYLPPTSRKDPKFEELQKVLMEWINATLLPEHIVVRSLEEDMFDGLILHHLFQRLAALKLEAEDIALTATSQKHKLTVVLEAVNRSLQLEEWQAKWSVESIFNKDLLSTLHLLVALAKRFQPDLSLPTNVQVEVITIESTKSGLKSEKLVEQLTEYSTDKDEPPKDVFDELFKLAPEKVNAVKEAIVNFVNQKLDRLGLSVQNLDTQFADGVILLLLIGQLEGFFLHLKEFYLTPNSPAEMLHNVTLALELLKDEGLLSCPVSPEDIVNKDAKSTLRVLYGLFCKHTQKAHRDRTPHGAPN
B3: Tuftelin-interacting protein 11 (Homo sapiens), Q9UBB9 (parent)
chain: MSLSHLYRDGEGRIDDDDDERENFEITDWDLQNEFNPNRQRHWQTKEEATYGVWAERDSDDERPSFGGKRARDYSAPVNFISAGLKKGAAEEAELEDSDDEEKPVKQDDFPKDFGPRKLKTGGNFKPSQKGFAGGTKSFMDFGSWERHTKGIGQKLLQKMGYVPGRGLGKNAQGIINPIEAKQRKGKGAVGAYGSERTTQSMQDFPVVDSEEEAEEEFQKELSQWRKDPSGSKKKPKYSYKTVEELKAKGRISKKLTAPQKELSQVKVIDMTGREQKVYYSYSQISHKHNVPDDGLPLQSQQLPQSGKEAKAPGFALPELEHNLQLLIDLTEQEIIQNDRQLQYERDMVVNLFHELEKMTEVLDHEERVISNLSKVLEMVEECERRMQPDCSNPLTLDECARIFETLQDKYYEEYRMSDRVDLAVAIVYPLMKEYFKEWDPLKDCTYGTEIISKWKSLLENDQLLSHGGQDLSADAFHRLIWEVWMPFVRNIVTQWQPRNCDPMVDFLDSWVHIIPVWILDNILDQLIFPKLQKEVENWNPLTDTVPIHSWIHPWLPLMQARLEPLYSPIRSKLSSALQKWHPSDSSAKLILQPWKDVFTPGSWEAFMVKNIVPKLGMCLGELVINPHQQHMDAFYWVIDWEGMISVSSLVGLLEKHFFPKWLQVLCSWLSNSPNYEEITKWYLGWKSMFSDQVLAHPSVKDKFNEALDIMNRAVSSNVGAYMQPGARENIAYLTHTERRKDFQYEAMQERREAENMAQRGIGVAASSVPMNFKDLIETKAEEHNIVFMPVIGKRHEGKQLYTFGRIVIYIDRGVVFVQGEKTWVPTSLQSLIDMAK
partner: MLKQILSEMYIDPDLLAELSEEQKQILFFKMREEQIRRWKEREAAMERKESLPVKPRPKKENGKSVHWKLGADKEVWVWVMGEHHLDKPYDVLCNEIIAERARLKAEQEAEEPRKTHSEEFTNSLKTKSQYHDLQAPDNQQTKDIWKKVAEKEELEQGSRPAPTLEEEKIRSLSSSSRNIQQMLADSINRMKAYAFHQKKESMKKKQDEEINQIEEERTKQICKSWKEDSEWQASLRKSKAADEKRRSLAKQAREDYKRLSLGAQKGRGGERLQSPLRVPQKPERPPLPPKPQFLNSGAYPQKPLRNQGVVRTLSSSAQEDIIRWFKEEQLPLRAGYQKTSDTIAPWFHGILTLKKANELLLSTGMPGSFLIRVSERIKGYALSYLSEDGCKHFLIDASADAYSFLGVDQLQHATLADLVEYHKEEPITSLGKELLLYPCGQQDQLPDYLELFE
B4: Keratin-associated protein 5-9 (Homo sapiens), P26371 (parent)
chain: MGCCGCSGGCGSSCGGCDSSCGSCGSGCRGCGPSCCAPVYCCKPVCCCVPACSCSSCGKRGCGSCGGSKGGCGSCGCSQCSCCKPCCCSSGCGSSCCQCSCCKPYCSQCSCCKPCCSSSGRGSSCCQSSCCKPCCSSSGCGSSCCQSSCCKPCCSQSRCCVPVCYQCKI
partner: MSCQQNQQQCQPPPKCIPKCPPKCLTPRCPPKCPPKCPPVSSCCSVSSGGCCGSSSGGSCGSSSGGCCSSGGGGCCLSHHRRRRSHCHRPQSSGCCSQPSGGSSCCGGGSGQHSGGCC
B5: ADP-ribosylation factor-like protein 2-binding protein (Homo sapiens), Q9Y2Y0 (parent)
chain: MDALEGESFALSFSSASDAEFDAVVGYLEDIIMDDEFQLLQRNFMDKYYLEFEDTEENKLIYTPIFNEYISLVEKYIEEQLLQRIPEFNMAAFTTTLQHHKDEVAGDIFDMLLTFTDFLAFKEMFLDYRAEKEGRGLDLSSGLVVTSLCKSSSLPASQNNLRH
B6: Transcription factor 12 (Homo sapiens), Q99081-3 (parent)
chain: MNPQQQRMAAIGTDKELSDLLDFSAMFSPPVNSGKTRPTTLGSSQFSGSGIDERGGTTSWGTSGQPSPSYDSSRGFTDSPHYSDHLNDSRLGAHEGLSPTPFMNSNLMGKTSERGSFSLYSRDTGLPGCQSSLLRQDLGLGSPAQLSSSGKPGTAYYSFSATSSRRRPLHDSAALDPLQAKKVRKVPPGLPSSVYAPSPNSDDFNRESPSYPSPKPPTSMFASTFFMQDGTHNSSDLWSSSNGMSQPGFGGILGTSTSHMSQSSSYGNLHSHDRLSYPPHSVSPTDINTSLPPMSSFHRGSTSSSPYVAASHTPPINGSDSILGTRGNAAGSSQTGDALGKALASIYSPDHTSSSFPSNPSTPVGSPSPLTGTSQWPRPGGQAPSSPSYENSLHSLKNRVEQQLHEHLQDAMSFLKDVCEQSRMEDRLDRLDDAIHVLRNHAVGPSTSLPAGHSDIHSLLGPSHNAPIGSLNSNYGGSSLVASSRSASMVGTHREDSVSLNGNHSVLSSTVTTSSTDLNHKTQENYRGGLQSQSGTVVTTEIKTENKEKDENLHEPPSSDDMKSDDESSQKDIKVSSRGRTSSTNEDEDLNPEQKIEREKERRMANNARERLRVRDINEAFKELGRMCQLHLKSEKPQTKLLILHQAVAVILSLEQQVRERNLNPKAACLKRREEEKVSAVSAEPPTTLPGTHPGLSETTNPMGHM

In the first test the parent is B1. The conditions noted are these: with neca2_human NECAB2, Q7Z6G3.
In the case of I646T, the “effect of a mutation on the interaction” value is “disrupting interaction strength”. The same measure, in the same setting: next, L715S: “disrupting interaction strength”.

A further test covers variants of B2. The settings on record: with parvg_human PARVG.
Turning to V340G, the “effect of a mutation on the interaction” value is recorded as “with no effect”.

A further test covers variants of B3. The conditions noted are these: with sh24a_human SH2D4A.
Regarding S688L, the “effect of a mutation on the interaction” value is on record as “with no effect”.

As for R8Q, the “effect of a mutation on the interaction” value is “with no effect”.

The variants in a further test derive from B4. The settings on record: with lce1b_human LCE1B.
Consider Y40C, for which the “effect of a mutation on the interaction” value is reported as “with no effect”.

Another test covers variants of B5. The conditions noted are these: with arl2_human ARL2, P36404.
Chain of arl2_human ARL2, P36404 (P36404 whole entry): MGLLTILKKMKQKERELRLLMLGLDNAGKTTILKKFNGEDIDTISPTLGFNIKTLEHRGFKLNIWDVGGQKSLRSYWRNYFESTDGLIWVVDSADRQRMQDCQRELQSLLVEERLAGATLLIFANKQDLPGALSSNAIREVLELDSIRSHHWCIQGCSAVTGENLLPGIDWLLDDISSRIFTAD
For E87K, the “effect of a mutation on the interaction” value was “disrupting interaction strength”. Still for that read-out and setting: next, M45R: “disrupting interaction strength”.

A further test covers variants of B6. The conditions noted are these: with cdn2c_human CDKN2C.
Take S446F: the “effect of a mutation on the interaction” value is listed as “with no effect”.

As for N606H, the “effect of a mutation on the interaction” value is recorded as “with no effect”.

The next test covers variants of B6. The conditions noted are these: with psa1_human PSMA1, P25786.
Chain of psa1_human PSMA1, P25786 (P25786 whole entry): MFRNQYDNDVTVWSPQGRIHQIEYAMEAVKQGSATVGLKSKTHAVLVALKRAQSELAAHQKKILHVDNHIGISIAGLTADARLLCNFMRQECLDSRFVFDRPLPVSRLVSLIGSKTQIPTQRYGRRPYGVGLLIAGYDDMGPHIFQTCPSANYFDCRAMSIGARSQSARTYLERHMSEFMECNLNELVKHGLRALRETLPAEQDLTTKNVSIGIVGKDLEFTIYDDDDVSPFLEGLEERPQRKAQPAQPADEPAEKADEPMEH
For S446F, the “effect of a mutation on the interaction” value is “with no effect”. For N606H, the “effect of a mutation on the interaction” value is listed as “with no effect”.
